We go through 41 molecules from patent US20260193376A1 (Novo Nordisk, published 2026).

Substitutions are numbered along the chain they refer to.

B1: one-armed (OA) mAb01-9986 (antibody, V domains shown)
VH: EVQLVESGGGLVQPGRSLRLSCAASGFTFHDYAMHWVRQVPGKGLEWVSGISWRGDIGGYVKSVKGRFTISRDNAKNSLYLQMNSLRAEDTALYYCVKSYGSGSFYNAFDSWGQGTLVTVSS
VL: DIQMTQSPSTLSASVGDRVTITCRASQSISSWLAWYQQKPGKAPKFLIYKASRLERGTPSRFSGSGSGTEFSLTISSLQPDDFATYYCLEYSSYIRTFGQGTKVEIK
B2: one-armed (OA) mAb11-0938 (antibody, V domains shown)
VH: B1 VH with R54K, K62D, A75E
VL: B1 VL with E55D, T58V
B3: one-armed (OA) mAb11-0164 (antibody, V domains shown)
VH: B1 VH with R19K, T28R, H30D, R54K, V61A, K62D, M83L
VL: B1 VL
B4: one-armed (OA) mAb11-0923 (antibody, V domains shown)
VH: B1 VH with R54K, K62D, A75E
VL: B1 VL with E55D, T58C
B5: one-armed (OA) mAb11-1024 (antibody, V domains shown)
VH: B1 VH with G26K, V40A, R54K, K62D, V97A
VL: B1 VL with R53K, S72T
B6: one-armed (OA) mAb11-0173 (antibody, V domains shown)
VH: B1 VH with V40A, R54K, K62D, V97A
VL: B1 VL with R53K, E55D, S72T
B7: one-armed (OA) mAb11-1033 (antibody, V domains shown)
VH: B1 VH with G26K, R54K, K62D, V97A
VL: B1 VL with R53K, S72T
B8: one-armed (OA) mAb11-0931 (antibody, V domains shown)
VH: B1 VH with R54K, K62D, A75E
VL: B1 VL with E55D, T58L
B9: one-armed (OA) mAb11-1021 (antibody, V domains shown)
VH: B1 VH with G26K, V40A, R54K, K62D, V97A
VL: B1 VL with R53K, E55D, S72T
B10: one-armed (OA) mAb11-1266 (antibody, V domains shown)
VH: B1 VH with R54K, K62D, A75E
VL: B1 VL with E55D, R56K
B11: one-armed (OA) mAb11-0174 (antibody, V domains shown)
VH: B1 VH with R19K, V40A, R54K, K62D, V97A
VL: B1 VL with R53K, E55D, S72T
B12: one-armed (OA) mAb11-1262 (antibody, V domains shown)
VH: B1 VH with R54K, K62D, A75E
VL: B1 VL with S30Q, E55D
B13: one-armed (OA) mAb11-0965 (antibody, V domains shown)
VH: B1 VH with G26K, V40A, R54K, V61A, K62D, V97A
VL: B1 VL with R53K, S72T
B14: one-armed (OA) mAb11-0932 (antibody, V domains shown)
VH: B1 VH with R54K, K62D, A75E
VL: B1 VL with E55D, T58M
B15: one-armed (OA) mAb11-1042 (antibody, V domains shown)
VH: B1 VH with R19K, G26K, V40A, R54K, K62D, V97A
VL: B1 VL with R53K, S72T
B16: one-armed (OA) mAb11-0160 (antibody, V domains shown)
VH: B1 VH with R19K, T28R, H30D, R54K, V61A, K62D, M83L
VL: B1 VL with R18E, Q27K, K45R, S60Q, S72T, S76Y
B17: one-armed (OA) mAb11-1260 (antibody, V domains shown)
VH: B1 VH with R54K, K62D, A75E
VL: B1 VL with S28Q, E55D
B18: one-armed (OA) mAb11-0935 (antibody, V domains shown)
VH: B1 VH with R54K, K62D, A75E
VL: B1 VL with E55D, T58Q
B19: one-armed (OA) mAb11-0962 (antibody, V domains shown)
VH: B1 VH with G26K, V40A, R54K, V61A, K62D, V97A
VL: B1 VL with R53K, E55D, S72T
B20: one-armed (OA) mAb11-0149 (antibody, V domains shown)
VH: B1 VH with R19K, H30D, V40A, R54K, K62D
VL: B1 VL with V15A, R18E, S30K, E55D, S60Q, S77R
B21: one-armed (OA) mAb11-1091 (antibody, V domains shown)
VH: B1 VH with R19K, R54K, K62D, V97A
VL: B1 VL with R53K, E55D, S72T
B22: one-armed (OA) mAb11-1094 (antibody, V domains shown)
VH: B1 VH with R19K, R54K, K62D, V97A
VL: B1 VL with R53K, S72T
B23: one-armed (OA) mAb11-1259 (antibody, V domains shown)
VH: B1 VH with R54K, K62D, A75E
VL: B1 VL with S28K, E55D
B24: one-armed (OA) mAb11-1254 (antibody, V domains shown)
VH: B1 VH with R54K, K62D, A75D
VL: B1 VL with E55D
B25: one-armed (OA) mAb11-1268 (antibody, V domains shown)
VH: B1 VH with R54K, K62D, A75E
VL: B1 VL with E55D, S60K
B26: one-armed (OA) mAb11-0047 (antibody, V domains shown)
VH: B1 VH with V40A, G58K, K62D, M83L, V97A
VL: B1 VL with V15A, Q27K, E55D, S60Q
B27: one-armed (OA) mAb11-1030 (antibody, V domains shown)
VH: B1 VH with G26K, R54K, K62D, V97A
VL: B1 VL with R53K, E55D, S72T
B28: one-armed (OA) mAb01-9373 (antibody, V domains shown)
VH: B1 VH with R19K, G58I, K62D, M83L
VL: B1 VL with V15A, R18E, Q27K, K45R, E55D, S72T, S77H
B29: one-armed (OA) mAb11-0933 (antibody, V domains shown)
VH: B1 VH with R54K, K62D, A75E
VL: B1 VL with E55D, T58N
B30: one-armed (OA) mAb11-1076 (antibody, V domains shown)
VH: B1 VH with R54K, K62D, V97A
VL: B1 VL with R53K, S72T
B31: one-armed (OA) mAb11-0937 (antibody, V domains shown)
VH: B1 VH with R54K, K62D, A75E
VL: B1 VL with E55D, T58S
B32: one-armed (OA) mAb11-1233 (antibody, V domains shown)
VH: B1 VH with T28K, R54K, K62D, A75E
VL: B1 VL with E55D
B33: one-armed (OA) mAb11-0049 (antibody, V domains shown)
VH: B1 VH with V40A, G58K, K62D, M83L, V97A
VL: B1 VL with V15A, T22S, F46L, E55D, S72T, S92N
B34: one-armed (OA) mAb11-0939 (antibody, V domains shown)
VH: B1 VH with R54K, K62D, A75E
VL: B1 VL with E55D, T58W
B35: one-armed (OA) mAb11-0723 (antibody, V domains shown)
VH: B1 VH with R19K, H30D, R54K, K62D, M83L, V97A
VL: B1 VL with V15A, E55D
B36: one-armed (OA) mAb11-0929 (antibody, V domains shown)
VH: B1 VH with R54K, K62D, A75E
VL: B1 VL with E55D, T58I
B37: one-armed (OA) mAb11-1073 (antibody, V domains shown)
VH: B1 VH with R54K, K62D, V97A
VL: B1 VL with R53K, E55D, S72T
B38: one-armed (OA) mAb11-1204 (antibody, V domains shown)
VH: B1 VH
VL: B1 VL with R18E, R53K
B39: one-armed (OA) mAb01-9016 (antibody, V domains shown)
VH: B1 VH with R19K, H30D, K62D, M83L
VL: B1 VL with V15A, T58V
B40: one-armed (OA) mAb11-1039 (antibody, V domains shown)
VH: B1 VH with R19K, G26K, V40A, R54K, K62D, V97A
VL: B1 VL with R53K, E55D, S72T
B41: one-armed (OA) mAb11-0107 (antibody, V domains shown)
VH: B1 VH with R19K, M83L
VL: B1 VL with R18E, S52Q, E55D, S60Q, S72T

The target of this test is human plasma-derived Factor IXa (human, UniProt P00740 47-191; P00740 227-461). Kind of test: cell-based or functional assay.
human plasma-derived Factor IXa, sequence (P00740 47-191, chain 1 of 2): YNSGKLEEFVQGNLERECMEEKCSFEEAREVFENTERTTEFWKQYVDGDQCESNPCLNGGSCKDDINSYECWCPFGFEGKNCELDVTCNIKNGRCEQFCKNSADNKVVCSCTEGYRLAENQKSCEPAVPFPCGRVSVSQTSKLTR
human plasma-derived Factor IXa, sequence (P00740 227-461, chain 2 of 2): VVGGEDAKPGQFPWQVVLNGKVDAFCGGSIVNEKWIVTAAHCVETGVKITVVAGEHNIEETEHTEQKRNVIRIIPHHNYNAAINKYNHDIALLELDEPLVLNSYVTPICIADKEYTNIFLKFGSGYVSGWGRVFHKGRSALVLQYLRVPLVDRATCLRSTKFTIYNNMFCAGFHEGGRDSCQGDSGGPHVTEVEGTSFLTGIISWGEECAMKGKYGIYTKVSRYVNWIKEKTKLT
For B1, the “Stimulation Index, FXa generation assay, 800 nM OA antibody” value (shortened to “Stimulation Index … 800 nM OA antibody”) was 5820 fold.
The same measure, in the same setting: the figure for B2 is 1820 fold; for B3 it is 3270 fold; for B4 it is 2820 fold.
Same read-out and setting: as for B5, the figure is 3650 fold.
As for B6, the “Stimulation Index, FXa generation assay, 1600 nM OA antibody” value (“Stimulation Index … 1600 nM OA antibody” below) is 8480 fold.
Take B7: the “Stimulation Index … 800 nM OA antibody” value turned out to be 5130 fold.
The same measure, in the same setting: as for B8, the figure is 1880 fold.
Still for that read-out and setting: the figure for B9 is 4650 fold; for B10 it is 1700 fold.
The same measure, in the same setting: as for B11, the figure is 3690 fold; as for B12, 1950 fold.
Turning to B13, the “Stimulation Index … 800 nM OA antibody” value is 2860 fold.
The same measure, in the same setting: as for B14, the figure is 1690 fold.
For the molecule B15, the “Stimulation Index … 800 nM OA antibody” value came out at 4320 fold.
On to B16, for which the “Stimulation Index … 800 nM OA antibody” value is 4550 fold.
Consider B17, for which the “Stimulation Index … 800 nM OA antibody” value amounted to 1760 fold.
Same read-out and setting: the figure for B18 is 1570 fold; for B19 it is 3370 fold.
With B20, the “Stimulation Index … 800 nM OA antibody” value turned out to be 3320 fold.
With B21, the “Stimulation Index … 800 nM OA antibody” value was 5400 fold.
For B22, the “Stimulation Index … 800 nM OA antibody” value came to 4080 fold.
The same measure, in the same setting: the figure for B23 is 2000 fold.
Take B24: the “Stimulation Index, FXa generation assay, 760 nM OA antibody” value is 1890 fold.
For B25, the “Stimulation Index … 800 nM OA antibody” value turned out to be 1800 fold.
The same measure, in the same setting: the figure for B26 is 2860 fold.
On the same count and under the same terms, the figure for B27 is 5750 fold.
For B28, the “Stimulation Index … 1600 nM OA antibody” value stood at 1390 fold.
Turning to B29, the “Stimulation Index … 800 nM OA antibody” value turned out to be 1610 fold.
The same measure, in the same setting: as for B30, the figure is 3590 fold.
For B31, the “Stimulation Index … 800 nM OA antibody” value is 2680 fold.
Still for that read-out and setting: the figure for B32 is 1700 fold; for B33 it is 1510 fold.
Still for that read-out and setting: as for B34, the figure is 2010 fold; as for B35, 3770 fold.
Still for that read-out and setting: as for B36, the figure is 1560 fold.
For the molecule B37, the “Stimulation Index … 800 nM OA antibody” value came out at 6150 fold.
On to B38, for which the “Stimulation Index … 1600 nM OA antibody” value stood at 9100 fold.
For B39, the “Stimulation Index … 1600 nM OA antibody” value was 5900 fold.
Turning to B40, the “Stimulation Index … 800 nM OA antibody” value came out at 3960 fold.
On the same count and under the same terms, the figure for B41 is 3260 fold.
